Experimental data taken from publication PMC9604462, “SAXS Examinations of the Redox-Dependent Formation of a DNA-SOD1 Complex”.

What was measured:
[1] = biological target: bovine SOD1, rhodamine B labeled (bovine, UniProt P00442 2-152); experiment: FRET; 20 mM Tris-HCl pH 7.4; 100 uM DNA, 200 uM SOD1; fitted from kinetic curve; FRET: 20 mM Tris-HCl pH 7.4, 37 C, 2 h; MST: 10 mM PBS pH 7.4, 0.05% Tween, room temperature, 5 min; SAXS: 100 uM bovine SOD1 and dsDNA, buffer not given in material; conditions: protein: commercial; tags: rhodamine B label; chain copies: 2; blunt
[2] = biological target: human Cu/Zn superoxide dismutase SOD1, RED-NHS labeled (human, UniProt P00441 1-154); experiment: MST; 500 nM SOD1; DNA two-fold dilutions from 20 uM; FRET: 20 mM Tris-HCl pH 7.4, 37 C, 2 h; MST: 10 mM PBS pH 7.4, 0.05% Tween, room temperature, 5 min; SAXS: 100 uM bovine SOD1 and dsDNA, buffer not given in material; conditions: protein: recombinant; tags: N-terminal His tag; RED-NHS dye; chain copies: 2; blunt
Chain of human Cu/Zn superoxide dismutase SOD1, RED-NHS labeled (P00441 whole entry): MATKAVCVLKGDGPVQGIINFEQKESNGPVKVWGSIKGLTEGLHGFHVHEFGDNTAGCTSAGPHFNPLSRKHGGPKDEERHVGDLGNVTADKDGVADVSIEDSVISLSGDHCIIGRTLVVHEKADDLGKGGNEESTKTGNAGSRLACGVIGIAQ

Chain of bovine SOD1, rhodamine B labeled (P00442 2-152): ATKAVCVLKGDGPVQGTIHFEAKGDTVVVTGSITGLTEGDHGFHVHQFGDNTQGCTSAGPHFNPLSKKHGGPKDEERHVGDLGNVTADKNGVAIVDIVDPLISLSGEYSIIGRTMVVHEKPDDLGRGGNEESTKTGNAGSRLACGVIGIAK

Binder | Kd [1] [nM] | Kd [2] [nM]
FITC-dsDNA (dsDNA) DNA 1: ATGGAATGGAAT DNA 2: ATTCCATTCCAT | 105 | –
dsDNA (dsDNA) DNA 1: ATGGAATGGAAT DNA 2: ATTCCATTCCAT | – | 155
